The text below walks through data of patent US20260001928A1 (CORTERIA PHARMACEUTICALS, priority 2022, published 2026).

*1 amine or outer side, *2 acyl side, *3 side chain or, on linkers, in order; H or OH if unused. Side-chain parts run from the residue outwards. [ ]: non-standard residue; d: D form. The star is where a group is joined. C16 diacid = O=C(O)CCCCCCCCCCCCCCC(=O)*; γGlu = O=C(O)[C@H](CCC(=O)[*:2])N[*:1]; C14 diacid = O=C(O)CCCCCCCCCCCCC(=O)*; Api = NC1(C(=O)O)CCNCC1; AEEA = NCCOCCOCC(=O)O; Aib = CC(C)(N)C(=O)O

The target in experiment [1] is T1, CRF1R receptor (UniProt P34998 24-415, limits assumed).
T1 sequence (looked up): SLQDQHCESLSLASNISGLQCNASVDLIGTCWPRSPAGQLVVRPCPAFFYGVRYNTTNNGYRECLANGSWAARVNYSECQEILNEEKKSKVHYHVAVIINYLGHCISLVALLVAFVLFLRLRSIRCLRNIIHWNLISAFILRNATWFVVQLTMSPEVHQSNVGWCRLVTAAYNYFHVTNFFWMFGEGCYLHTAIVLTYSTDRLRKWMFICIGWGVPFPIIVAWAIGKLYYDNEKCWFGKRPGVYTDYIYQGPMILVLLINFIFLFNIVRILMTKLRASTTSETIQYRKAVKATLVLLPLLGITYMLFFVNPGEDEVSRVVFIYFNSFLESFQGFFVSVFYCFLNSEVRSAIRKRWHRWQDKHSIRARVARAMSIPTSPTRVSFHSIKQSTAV
The experiment can be described thus: cell-based or functional assay.

Experiment [2] concerns the target human corticotropin-releasing factor 2a (CRF2a receptor) (human), Q13324. Briefly: cell-based or functional assay.

Sequence of human corticotropin-releasing factor 2a (CRF2a receptor) (human), Q13324 (Q13324 20-411): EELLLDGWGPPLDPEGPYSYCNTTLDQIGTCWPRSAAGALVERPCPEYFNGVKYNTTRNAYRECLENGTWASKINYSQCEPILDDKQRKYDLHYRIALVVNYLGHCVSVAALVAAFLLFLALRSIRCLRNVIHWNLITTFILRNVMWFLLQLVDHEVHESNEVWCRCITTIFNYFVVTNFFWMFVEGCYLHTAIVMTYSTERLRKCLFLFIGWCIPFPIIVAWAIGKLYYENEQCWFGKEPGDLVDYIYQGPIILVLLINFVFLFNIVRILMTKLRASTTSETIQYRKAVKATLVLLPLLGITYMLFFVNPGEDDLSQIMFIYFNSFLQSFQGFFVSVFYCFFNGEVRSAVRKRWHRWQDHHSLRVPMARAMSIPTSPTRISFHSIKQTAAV

B1: SEQ ID NO 167 (peptide)
peptide: Ac-IVLSLD[dV]PIKLK([γGlu-C16 diacid])KILLEQEKQKKQAEQAETN[Aib]QILAQV-NH2
SMILES: CC[C@H](C)[C@H](NC(C)=O)C(=O)N[C@H](C(=O)N[C@@H](CC(C)C)C(=O)N[C@@H](CO)C(=O)N[C@@H](CC(C)C)C(=O)N[C@@H](CC(=O)O)C(=O)N[C@@H](C(=O)N1CCC[C@H]1C(=O)N[C@H](C(=O)N[C@@H](CCCCN)C(=O)N[C@@H](CC(C)C)C(=O)N[C@@H](CCCCNC(=O)CC[C@H](NC(=O)CCCCCCCCCCCCCCC(=O)O)C(=O)O)C(=O)N[C@@H](CCCCN)C(=O)N[C@H](C(=O)N[C@@H](CC(C)C)C(=O)N[C@@H](CC(C)C)C(=O)N[C@@H](CCC(=O)O)C(=O)N[C@@H](CCC(N)=O)C(=O)N[C@@H](CCC(=O)O)C(=O)N[C@@H](CCCCN)C(=O)N[C@@H](CCC(N)=O)C(=O)N[C@@H](CCCCN)C(=O)N[C@@H](CCCCN)C(=O)N[C@@H](CCC(N)=O)C(=O)N[C@@H](C)C(=O)N[C@@H](CCC(=O)O)C(=O)N[C@@H](CCC(N)=O)C(=O)N[C@@H](C)C(=O)N[C@@H](CCC(=O)O)C(=O)N[C@H](C(=O)N[C@@H](CC(N)=O)C(=O)NC(C)(C)C(=O)N[C@@H](CCC(N)=O)C(=O)N[C@H](C(=O)N[C@@H](CC(C)C)C(=O)N[C@@H](C)C(=O)N[C@@H](CCC(N)=O)C(=O)N[C@H](C(N)=O)C(C)C)[C@@H](C)CC)[C@@H](C)O)[C@@H](C)CC)[C@@H](C)CC)C(C)C)C(C)C
B1: in experiment [1], the “Emax (% I)” value was 7%. In addition, the EC50 [nM] (cAMP) in experiment [2] was 1.15 nM.

B2: SEQ ID NO 166 (peptide)
peptide: Ac-IVLSLD[dV]PIKLK([γGlu-C16 diacid])KILLEQEKQAKQREQAETN[Aib]QILAQV-NH2
SMILES: CC[C@H](C)[C@H](NC(C)=O)C(=O)N[C@H](C(=O)N[C@@H](CC(C)C)C(=O)N[C@@H](CO)C(=O)N[C@@H](CC(C)C)C(=O)N[C@@H](CC(=O)O)C(=O)N[C@@H](C(=O)N1CCC[C@H]1C(=O)N[C@H](C(=O)N[C@@H](CCCCN)C(=O)N[C@@H](CC(C)C)C(=O)N[C@@H](CCCCNC(=O)CC[C@H](NC(=O)CCCCCCCCCCCCCCC(=O)O)C(=O)O)C(=O)N[C@@H](CCCCN)C(=O)N[C@H](C(=O)N[C@@H](CC(C)C)C(=O)N[C@@H](CC(C)C)C(=O)N[C@@H](CCC(=O)O)C(=O)N[C@@H](CCC(N)=O)C(=O)N[C@@H](CCC(=O)O)C(=O)N[C@@H](CCCCN)C(=O)N[C@@H](CCC(N)=O)C(=O)N[C@@H](C)C(=O)N[C@@H](CCCCN)C(=O)N[C@@H](CCC(N)=O)C(=O)N[C@@H](CCCNC(=N)N)C(=O)N[C@@H](CCC(=O)O)C(=O)N[C@@H](CCC(N)=O)C(=O)N[C@@H](C)C(=O)N[C@@H](CCC(=O)O)C(=O)N[C@H](C(=O)N[C@@H](CC(N)=O)C(=O)NC(C)(C)C(=O)N[C@@H](CCC(N)=O)C(=O)N[C@H](C(=O)N[C@@H](CC(C)C)C(=O)N[C@@H](C)C(=O)N[C@@H](CCC(N)=O)C(=O)N[C@H](C(N)=O)C(C)C)[C@@H](C)CC)[C@@H](C)O)[C@@H](C)CC)[C@@H](C)CC)C(C)C)C(C)C
On to B2, for which the “Emax (% I)” value in experiment [1] turned out to be 5%. The same molecule registered an EC50 [nM] (cAMP) in experiment [2] of 0.77 nM.

B3: SEQ ID NO 171 (peptide)
peptide: Ac-IVLSLD[dV]PIKLK([AEEA-AEEA-γGlu-C14 diacid])KILLEQEKQKKQREQAETN[Aib]QILAQV-NH2
SMILES: CC[C@H](C)[C@H](NC(C)=O)C(=O)N[C@H](C(=O)N[C@@H](CC(C)C)C(=O)N[C@@H](CO)C(=O)N[C@@H](CC(C)C)C(=O)N[C@@H](CC(=O)O)C(=O)N[C@@H](C(=O)N1CCC[C@H]1C(=O)N[C@H](C(=O)N[C@@H](CCCCN)C(=O)N[C@@H](CC(C)C)C(=O)N[C@@H](CCCCNC(=O)COCCOCCNC(=O)COCCOCCNC(=O)CC[C@H](NC(=O)CCCCCCCCCCCCC(=O)O)C(=O)O)C(=O)N[C@@H](CCCCN)C(=O)N[C@H](C(=O)N[C@@H](CC(C)C)C(=O)N[C@@H](CC(C)C)C(=O)N[C@@H](CCC(=O)O)C(=O)N[C@@H](CCC(N)=O)C(=O)N[C@@H](CCC(=O)O)C(=O)N[C@@H](CCCCN)C(=O)N[C@@H](CCC(N)=O)C(=O)N[C@@H](CCCCN)C(=O)N[C@@H](CCCCN)C(=O)N[C@@H](CCC(N)=O)C(=O)N[C@@H](CCCNC(=N)N)C(=O)N[C@@H](CCC(=O)O)C(=O)N[C@@H](CCC(N)=O)C(=O)N[C@@H](C)C(=O)N[C@@H](CCC(=O)O)C(=O)N[C@H](C(=O)N[C@@H](CC(N)=O)C(=O)NC(C)(C)C(=O)N[C@@H](CCC(N)=O)C(=O)N[C@H](C(=O)N[C@@H](CC(C)C)C(=O)N[C@@H](C)C(=O)N[C@@H](CCC(N)=O)C(=O)N[C@H](C(N)=O)C(C)C)[C@@H](C)CC)[C@@H](C)O)[C@@H](C)CC)[C@@H](C)CC)C(C)C)C(C)C
Turning to B3, the “Emax (% I)” value in experiment [1] worked out at 0%. The molecule further showed an EC50 [nM] (cAMP) in experiment [2] of 5.79 nM.

B4: SEQ ID NO 170 (peptide)
peptide: Ac-IVLSLD[dV]PIKLK([γGlu-C14 diacid])KILLEQEKQK[Aib]QREQAETN[Api]QILAQV-NH2
SMILES: CC[C@H](C)[C@H](NC(C)=O)C(=O)N[C@H](C(=O)N[C@@H](CC(C)C)C(=O)N[C@@H](CO)C(=O)N[C@@H](CC(C)C)C(=O)N[C@@H](CC(=O)O)C(=O)N[C@@H](C(=O)N1CCC[C@H]1C(=O)N[C@H](C(=O)N[C@@H](CCCCN)C(=O)N[C@@H](CC(C)C)C(=O)N[C@@H](CCCCNC(=O)CC[C@H](NC(=O)CCCCCCCCCCCCC(=O)O)C(=O)O)C(=O)N[C@@H](CCCCN)C(=O)N[C@H](C(=O)N[C@@H](CC(C)C)C(=O)N[C@@H](CC(C)C)C(=O)N[C@@H](CCC(=O)O)C(=O)N[C@@H](CCC(N)=O)C(=O)N[C@@H](CCC(=O)O)C(=O)N[C@@H](CCCCN)C(=O)N[C@@H](CCC(N)=O)C(=O)N[C@@H](CCCCN)C(=O)NC(C)(C)C(=O)N[C@@H](CCC(N)=O)C(=O)N[C@@H](CCCNC(=N)N)C(=O)N[C@@H](CCC(=O)O)C(=O)N[C@@H](CCC(N)=O)C(=O)N[C@@H](C)C(=O)N[C@@H](CCC(=O)O)C(=O)N[C@H](C(=O)N[C@@H](CC(N)=O)C(=O)NC1(C(=O)N[C@@H](CCC(N)=O)C(=O)N[C@H](C(=O)N[C@@H](CC(C)C)C(=O)N[C@@H](C)C(=O)N[C@@H](CCC(N)=O)C(=O)N[C@H](C(N)=O)C(C)C)[C@@H](C)CC)CCNCC1)[C@@H](C)O)[C@@H](C)CC)[C@@H](C)CC)C(C)C)C(C)C
As to B4, the “Emax (% I)” value in experiment [1] came out at 5%. This molecule came in with an EC50 [nM] (cAMP) in experiment [2] of 1.28 nM.

B5: SEQ ID NO 169 (peptide)
peptide: Ac-IVLSLD[dV]PIKLK([γGlu-C14 diacid])KILLEQEKQKAQREQAETN[Api]QILAQV-NH2
SMILES: CC[C@H](C)[C@H](NC(C)=O)C(=O)N[C@H](C(=O)N[C@@H](CC(C)C)C(=O)N[C@@H](CO)C(=O)N[C@@H](CC(C)C)C(=O)N[C@@H](CC(=O)O)C(=O)N[C@@H](C(=O)N1CCC[C@H]1C(=O)N[C@H](C(=O)N[C@@H](CCCCN)C(=O)N[C@@H](CC(C)C)C(=O)N[C@@H](CCCCNC(=O)CC[C@H](NC(=O)CCCCCCCCCCCCC(=O)O)C(=O)O)C(=O)N[C@@H](CCCCN)C(=O)N[C@H](C(=O)N[C@@H](CC(C)C)C(=O)N[C@@H](CC(C)C)C(=O)N[C@@H](CCC(=O)O)C(=O)N[C@@H](CCC(N)=O)C(=O)N[C@@H](CCC(=O)O)C(=O)N[C@@H](CCCCN)C(=O)N[C@@H](CCC(N)=O)C(=O)N[C@@H](CCCCN)C(=O)N[C@@H](C)C(=O)N[C@@H](CCC(N)=O)C(=O)N[C@@H](CCCNC(=N)N)C(=O)N[C@@H](CCC(=O)O)C(=O)N[C@@H](CCC(N)=O)C(=O)N[C@@H](C)C(=O)N[C@@H](CCC(=O)O)C(=O)N[C@H](C(=O)N[C@@H](CC(N)=O)C(=O)NC1(C(=O)N[C@@H](CCC(N)=O)C(=O)N[C@H](C(=O)N[C@@H](CC(C)C)C(=O)N[C@@H](C)C(=O)N[C@@H](CCC(N)=O)C(=O)N[C@H](C(N)=O)C(C)C)[C@@H](C)CC)CCNCC1)[C@@H](C)O)[C@@H](C)CC)[C@@H](C)CC)C(C)C)C(C)C
In the case of B5, the “Emax (% I)” value in experiment [1] is 13%. In experiment [2], this molecule gave an EC50 [nM] (cAMP) of 1.34 nM.

B6: SEQ ID NO 168 (peptide)
peptide: Ac-IVLSLD[dV]PIKLK([γGlu-C16 diacid])KILLEQEKQKEQREQAETN[Aib]QILAQV-NH2
SMILES: CC[C@H](C)[C@H](NC(C)=O)C(=O)N[C@H](C(=O)N[C@@H](CC(C)C)C(=O)N[C@@H](CO)C(=O)N[C@@H](CC(C)C)C(=O)N[C@@H](CC(=O)O)C(=O)N[C@@H](C(=O)N1CCC[C@H]1C(=O)N[C@H](C(=O)N[C@@H](CCCCN)C(=O)N[C@@H](CC(C)C)C(=O)N[C@@H](CCCCNC(=O)CC[C@H](NC(=O)CCCCCCCCCCCCCCC(=O)O)C(=O)O)C(=O)N[C@@H](CCCCN)C(=O)N[C@H](C(=O)N[C@@H](CC(C)C)C(=O)N[C@@H](CC(C)C)C(=O)N[C@@H](CCC(=O)O)C(=O)N[C@@H](CCC(N)=O)C(=O)N[C@@H](CCC(=O)O)C(=O)N[C@@H](CCCCN)C(=O)N[C@@H](CCC(N)=O)C(=O)N[C@@H](CCCCN)C(=O)N[C@@H](CCC(=O)O)C(=O)N[C@@H](CCC(N)=O)C(=O)N[C@@H](CCCNC(=N)N)C(=O)N[C@@H](CCC(=O)O)C(=O)N[C@@H](CCC(N)=O)C(=O)N[C@@H](C)C(=O)N[C@@H](CCC(=O)O)C(=O)N[C@H](C(=O)N[C@@H](CC(N)=O)C(=O)NC(C)(C)C(=O)N[C@@H](CCC(N)=O)C(=O)N[C@H](C(=O)N[C@@H](CC(C)C)C(=O)N[C@@H](C)C(=O)N[C@@H](CCC(N)=O)C(=O)N[C@H](C(N)=O)C(C)C)[C@@H](C)CC)[C@@H](C)O)[C@@H](C)CC)[C@@H](C)CC)C(C)C)C(C)C
In the case of B6, in experiment [1], the “Emax (% I)” value was 3%. The EC50 [nM] (cAMP) in experiment [2] is 0.8 nM.
